This is an account of results in paper PMC9741607, “Cryo-electron tomography reveals structural insights into the membrane remodeling mode of dynamin-like EHD filaments” (Nature Communications, 2022).

The data set concerns the molecule itself. Put plainly: cryo-EM structure; cryo-electron tomography and subtomogram averaging of EHD4^ΔN filaments on membrane tubes (liposomes of 50% Folch extract, 40% phosphatidylethanolamine, 10% cholesterol) with AMPPNP; pseudo-atomic model by rigid-body and flexible fitting.

B1: mouse EHD4 (residues 22-541, EHD4^ΔN) (domain or fragment, UniProt Q9EQP2 22-541, looked up)
chain: QTVTGGLRSLYQRKVLPLEEAYRFHEFHSPALEDADFENKPMILLVGQYSTGKTTFIRYLLEQDFPGMRIGPEPTTDSFIAVMYGETEGSTPGNALVVDPKKPFRKLSRFGNAFLNRFMCSQLPNQVLKSISIIDSPGILSGEKQRISRGYDFCQVLQWFAERVDRIILLFDAHKLDISDEFSEAIKAFRGQDDKIRVVLNKADQVDTQQLMRVYGALMWSLGKVINTPEVLRVYIGSFWAQPLQNTDNRRLFEAEAQDLFRDIQSLPQKAAVRKLNDLIKRARLAKVHAYIISYLKKEMPNMFGKENKKRELIYRLPEIYVQLQREYQISAGDFPEVKAMQEQLENYDFTKFHSLKPKLIEAVDNMLTNKISSLMGLISQEEMNMPTQMVQGGAFDGTTEGPFNQGYGEGAKEGADEEEWVVAKDKPVYDELFYTLSPINGKISGVNAKKEMVTSKLPNSVLGKIWKLADCDCDGMLDEEEFALAKHLIKIKLDGYELPNSLPPHLVPPSHRKSLPKAD
notes: Eps15-homology domain containing protein 4 (EHD4), mouse, amino acids 22-541; N-terminal residues deleted; The fitted model covers residues 22-535; The His6 tag was removed with PreScission protease; also called N-terminal deletion construct of mouse EHD4; EHD4/Pincher; source: E. coli BL21(DE3)-Rosetta2, purified (NiNTA, Superdex 200); not shown: His6, N-terminal, cleaved
For the protein B1, the binding result was “binds”.
